Assays:
[1] = target: T1, murine VEGFR1, over-expressed on cells (mouse, UniProt P35969 23-1333); assay: FACS cell binding (MFI) on HEK cells over-expressing murine VEGFR1; expanded clone supernatant per paragraph 492, concentration not given
T1 construct: whole, on cells; also called mouse VEGFR1
T1 sequence (looked up): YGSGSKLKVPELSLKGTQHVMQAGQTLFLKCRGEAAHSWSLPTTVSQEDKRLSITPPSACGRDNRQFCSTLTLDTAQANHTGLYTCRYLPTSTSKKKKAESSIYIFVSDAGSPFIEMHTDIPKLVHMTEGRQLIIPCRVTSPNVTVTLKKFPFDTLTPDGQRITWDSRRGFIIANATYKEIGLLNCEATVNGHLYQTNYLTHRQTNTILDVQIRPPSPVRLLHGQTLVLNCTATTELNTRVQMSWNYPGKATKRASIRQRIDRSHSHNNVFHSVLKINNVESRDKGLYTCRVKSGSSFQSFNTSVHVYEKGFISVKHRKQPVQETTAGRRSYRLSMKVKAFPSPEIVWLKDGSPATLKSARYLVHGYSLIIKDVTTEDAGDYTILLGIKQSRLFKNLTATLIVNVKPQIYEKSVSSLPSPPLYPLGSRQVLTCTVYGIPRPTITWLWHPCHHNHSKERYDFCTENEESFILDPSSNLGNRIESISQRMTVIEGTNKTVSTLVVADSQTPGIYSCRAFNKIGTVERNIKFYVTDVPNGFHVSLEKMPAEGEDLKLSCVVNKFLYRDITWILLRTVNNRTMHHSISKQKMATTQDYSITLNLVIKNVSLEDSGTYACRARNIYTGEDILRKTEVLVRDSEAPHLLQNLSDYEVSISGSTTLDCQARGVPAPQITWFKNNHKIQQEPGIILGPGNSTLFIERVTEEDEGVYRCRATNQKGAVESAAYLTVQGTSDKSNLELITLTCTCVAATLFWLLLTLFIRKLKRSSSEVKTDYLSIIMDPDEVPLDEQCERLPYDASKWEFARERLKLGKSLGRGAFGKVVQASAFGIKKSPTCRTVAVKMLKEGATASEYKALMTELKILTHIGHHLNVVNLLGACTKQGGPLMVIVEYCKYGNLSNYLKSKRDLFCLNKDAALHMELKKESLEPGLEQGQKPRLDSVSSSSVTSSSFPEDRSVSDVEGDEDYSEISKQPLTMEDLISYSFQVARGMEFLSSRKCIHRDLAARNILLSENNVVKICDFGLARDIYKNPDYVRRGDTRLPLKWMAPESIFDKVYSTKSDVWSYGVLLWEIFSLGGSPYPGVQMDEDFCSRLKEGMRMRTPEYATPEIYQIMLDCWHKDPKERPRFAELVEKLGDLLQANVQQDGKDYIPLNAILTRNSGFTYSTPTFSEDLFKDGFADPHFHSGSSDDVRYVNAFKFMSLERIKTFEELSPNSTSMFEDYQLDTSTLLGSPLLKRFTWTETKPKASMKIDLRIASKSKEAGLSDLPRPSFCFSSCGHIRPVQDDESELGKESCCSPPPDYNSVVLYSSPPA
How it was run: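 Flow cytometry was used to measure binding of culture supernatants to HEK cells over-expressing mouse VEGFR1 or human VEGFR2 and to K562 cells over-expressing human VEGFR3. The supernatants came from chicken-derived clones expressed as scFv-Fc (human IgG1) by transient transfection and expanded to 6-well plates (2 mL). Binding is reported as mean fluorescence intensity.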

[2] = target: human VEGFR1 (soluble antigen of the KinExA and SPR affinity assays) (human, UniProt P17948 27-758, limits assumed); assay: KinExA, solution
Chain of human VEGFR1 (soluble antigen of the KinExA and SPR affinity assays) (P17948 27-758 limits assumed): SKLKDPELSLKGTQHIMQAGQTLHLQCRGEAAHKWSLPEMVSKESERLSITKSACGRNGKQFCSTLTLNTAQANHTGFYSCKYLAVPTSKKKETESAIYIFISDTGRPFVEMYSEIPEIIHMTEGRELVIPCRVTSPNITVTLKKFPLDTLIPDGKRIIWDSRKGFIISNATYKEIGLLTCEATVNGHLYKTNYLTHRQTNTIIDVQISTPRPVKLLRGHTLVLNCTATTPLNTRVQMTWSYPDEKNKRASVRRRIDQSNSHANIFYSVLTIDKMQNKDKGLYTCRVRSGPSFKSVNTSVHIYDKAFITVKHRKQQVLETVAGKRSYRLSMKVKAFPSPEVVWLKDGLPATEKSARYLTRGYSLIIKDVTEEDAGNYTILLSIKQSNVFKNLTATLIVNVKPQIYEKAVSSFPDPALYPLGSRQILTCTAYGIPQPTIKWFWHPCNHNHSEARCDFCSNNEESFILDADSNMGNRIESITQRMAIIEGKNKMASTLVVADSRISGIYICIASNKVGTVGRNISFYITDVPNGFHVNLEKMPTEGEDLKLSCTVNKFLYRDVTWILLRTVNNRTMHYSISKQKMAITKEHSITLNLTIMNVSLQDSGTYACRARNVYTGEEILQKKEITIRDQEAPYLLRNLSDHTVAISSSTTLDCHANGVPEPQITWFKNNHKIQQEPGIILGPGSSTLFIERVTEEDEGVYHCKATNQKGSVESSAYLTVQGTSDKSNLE
Description: (§1) Kinetic exclusion assay (KEA; KinExA) was used to analyze the binding of anti-VEGFR1 antibodies to human, mouse and cynomolgus monkeys VEGFR1. KEA is a fluorescence-based solution method, and it is described in detail in the literature (Darling and Brault, 2004). To measure the affinity of an interaction, a series of solutions with a fixed concentration of one interactant (A) and varying concentrations of another interactant (B) are prepared and allowed to reach equilibrium. After equilibration, the concentration of free A is determined by flowing the equilibrated mixture through a column packed with beads modified with reactant B. Free A binds to the beads and is then detected using a fluorescently labeled polyclonal antibody.
(§2) Briefly, fixed concentrations (300 pM, 60 pM, 12 pM, 2.4 or 0.5 pM) of Ab were used to prepare a serial dilution of the antigen (2 nM to 0.52 pM, or 800 pM to 5.37 fM). The complex titrations were incubated at RT to reach binding equilibrium for at least 2 days. After incubation, the samples were run on the KinExA3200 or KinExA4000 instrument to assess free antibody in the reaction. During these studies some of the data were rejected because the experiments failed or failed the acceptance criteria. For mouse VEGFR1 the 60 and 300 pM concentrations were rejected due to high titrant related NSB. The dissociation equilibrium constant, (KD), was determined using the n-curve analysis feature of the KinExA Pro software. This program uses nonlinear least-square regression analysis of the globally fitted data to a 1:1 binding model. (CI=confidence interval).

[3] = target: T2, rat VEGFR1 (soluble antigen of the KinExA and SPR affinity assays) (rat, UniProt P53767 23-758, limits assumed); assay: KinExA, solution
T2 sequence (looked up): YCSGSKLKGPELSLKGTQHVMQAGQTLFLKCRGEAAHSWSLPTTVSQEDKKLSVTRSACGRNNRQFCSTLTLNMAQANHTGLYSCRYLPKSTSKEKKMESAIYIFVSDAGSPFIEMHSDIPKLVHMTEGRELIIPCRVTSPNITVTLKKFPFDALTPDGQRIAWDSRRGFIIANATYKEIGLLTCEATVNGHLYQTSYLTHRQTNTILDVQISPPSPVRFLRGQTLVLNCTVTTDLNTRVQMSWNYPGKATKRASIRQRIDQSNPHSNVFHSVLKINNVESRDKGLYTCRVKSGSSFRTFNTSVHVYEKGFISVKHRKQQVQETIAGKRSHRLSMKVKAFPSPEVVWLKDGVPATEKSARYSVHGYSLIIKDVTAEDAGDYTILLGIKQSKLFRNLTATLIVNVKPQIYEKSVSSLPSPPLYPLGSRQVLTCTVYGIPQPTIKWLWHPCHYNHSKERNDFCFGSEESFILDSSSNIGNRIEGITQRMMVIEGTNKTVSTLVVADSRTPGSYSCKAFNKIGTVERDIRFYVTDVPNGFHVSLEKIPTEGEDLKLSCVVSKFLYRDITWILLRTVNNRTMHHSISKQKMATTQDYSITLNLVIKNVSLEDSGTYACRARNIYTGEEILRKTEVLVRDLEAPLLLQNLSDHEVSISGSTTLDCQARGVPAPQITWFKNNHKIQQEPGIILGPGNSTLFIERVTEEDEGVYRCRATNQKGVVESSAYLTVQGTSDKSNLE
Description: as §1, §2

B1: VGFB71 (antibody, human IgG1, lambda, L234A L235A, V domains shown)
VH: EVQLLESGGGLVQPGGSLRLSCEASGFIFRDYNMNWVRQAPGKGLEWVSIITNDGSSTAYSDSVKGRFTISRDNSKNSLYLQMNSLRAEDTAIYYCVKVYYGMDDWGQGTTVTVSS
VL: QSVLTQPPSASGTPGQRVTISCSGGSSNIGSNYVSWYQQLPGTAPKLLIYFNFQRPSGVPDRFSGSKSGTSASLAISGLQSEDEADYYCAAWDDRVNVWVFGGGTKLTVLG
notes: human IgG1 (L234A/L235A/D265S)
[1]
  binding result: binds

B2: VGFB82 (antibody, human IgG1, lambda, L234A L235A, V domains shown)
VH: EVQLLESGGGLVQPGGSLRLSCEASGFDFSTYAMNWVRQAPGKGLEWVATINSEGTITSHAPAVKGRFTISRDNSKNTAYVQMNSLRAEDSAVYYCSSTTGTTHGMDVWGRGTTVTVSS
VL: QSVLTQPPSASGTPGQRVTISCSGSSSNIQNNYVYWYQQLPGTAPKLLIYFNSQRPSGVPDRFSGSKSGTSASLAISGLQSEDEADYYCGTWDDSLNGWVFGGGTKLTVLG
notes: as for B1
[2]
  Kd: 0.00046 nM
[3]
  Kd: 0.224 nM
